Measured values reported in patent publication US20250352661A1 (MYTHIC THERAPEUTICS, published 2025).

T1: Human LRRC15 Protein, His Tag, Acro Biosystems (human, UniProt Q8TF66 22-538, limits assumed)
T1 construct: not shown: His tag
T1 sequence (looked up): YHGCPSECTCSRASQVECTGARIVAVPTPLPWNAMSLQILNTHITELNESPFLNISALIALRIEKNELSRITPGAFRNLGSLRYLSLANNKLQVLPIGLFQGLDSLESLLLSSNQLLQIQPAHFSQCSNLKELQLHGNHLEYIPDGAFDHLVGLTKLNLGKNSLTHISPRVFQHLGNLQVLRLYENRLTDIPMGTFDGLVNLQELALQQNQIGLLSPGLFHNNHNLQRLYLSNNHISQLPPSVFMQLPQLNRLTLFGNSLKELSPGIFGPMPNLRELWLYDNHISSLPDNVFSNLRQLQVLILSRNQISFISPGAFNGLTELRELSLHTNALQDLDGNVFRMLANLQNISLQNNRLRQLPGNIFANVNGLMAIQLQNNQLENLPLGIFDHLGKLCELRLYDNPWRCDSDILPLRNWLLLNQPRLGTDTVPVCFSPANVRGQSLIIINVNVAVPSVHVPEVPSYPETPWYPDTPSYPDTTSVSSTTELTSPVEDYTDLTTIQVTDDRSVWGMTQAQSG

T2: Human LRRC15 Protein, His Tag (Acro Biosystems) (human, UniProt Q8TF66 22-538, limits assumed)
T2 construct: not shown: His tag
T2 sequence (looked up): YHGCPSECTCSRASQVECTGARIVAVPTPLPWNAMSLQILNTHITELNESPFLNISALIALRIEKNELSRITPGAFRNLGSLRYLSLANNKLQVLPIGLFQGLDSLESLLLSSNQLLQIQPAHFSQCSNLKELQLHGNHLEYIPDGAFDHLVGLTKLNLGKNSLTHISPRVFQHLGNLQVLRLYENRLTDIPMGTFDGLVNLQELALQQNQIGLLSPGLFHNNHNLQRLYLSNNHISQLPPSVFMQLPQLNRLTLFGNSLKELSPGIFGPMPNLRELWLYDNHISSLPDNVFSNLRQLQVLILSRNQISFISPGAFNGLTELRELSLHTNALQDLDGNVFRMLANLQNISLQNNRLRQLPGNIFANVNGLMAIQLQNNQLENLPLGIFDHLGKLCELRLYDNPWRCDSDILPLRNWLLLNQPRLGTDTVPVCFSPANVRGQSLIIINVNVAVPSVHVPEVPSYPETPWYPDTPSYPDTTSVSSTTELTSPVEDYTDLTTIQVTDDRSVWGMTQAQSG

B1: MYT9727 (antibody, V domains shown)
VH: EVQLVESGGGLVQPGGSLRLSCTASGFSFSSSHWICWVRQAPGKGLEWVGCIYAGSIGSTYYASWAKGRFTISRDTSKNTVYLQMNSLRAEDTAVYYCARAPNDIYNYYFNLWGQGTLVTVSS
VL: EIVMTQSPSTLSASVGDRVIITCEASENIYNYLAWYQQKPGKAPKLLIYYASTLASGVPSRFSGSGSGAEFTLTISSLQPDDFATYYCQSGYVSKSSTFGQGTKLTVL
notes: Humanized 29F1 with VL Q24E; captured by anti-human Fc sensor
B2: MYT9730 (antibody, V domains shown)
VH: EVQLVESGGGLVQPGGSLRLSCTASGFSFSSSHWICWVRQAPGKGLEWVGCIYAGSIGSTYYASWAKGRFTISRDTSKNTVYLQMNSLRAEDTAVYYCARAPNDIYNYYFNLWGQGTLVTVSS
VL: EIVMTQSPSTLSASVGDRVIITCQASANIYNYLAWYQQKPGKAPKLLIYYASTLASGVPSRFSGSGSGAEFTLTISSLQPDDFATYYCQSGYVSKSSTFGQGTKLTVL
notes: Humanized 29F1 with VL E27A; captured by anti-human Fc sensor
B3: MYT9728 (antibody, V domains shown)
VH: EVQLVESGGGLVQPGGSLRLSCTASGFSFSSSHWICWVRQAPGKGLEWVGCIYAGSIGSTYYASWAKGRFTISRDTSKNTVYLQMNSLRAEDTAVYYCARAPNDIYNYYFNLWGQGTLVTVSS
VL: EIVMTQSPSTLSASVGDRVIITCQESENIYNYLAWYQQKPGKAPKLLIYYASTLASGVPSRFSGSGSGAEFTLTISSLQPDDFATYYCQSGYVSKSSTFGQGTKLTVL
notes: also called hu29F1 VL A25E
B4: MYT9729 (antibody, V domains shown)
VH: EVQLVESGGGLVQPGGSLRLSCTASGFSFSSSHWICWVRQAPGKGLEWVGCIYAGSIGSTYYASWAKGRFTISRDTSKNTVYLQMNSLRAEDTAVYYCARAPNDIYNYYFNLWGQGTLVTVSS
VL: EIVMTQSPSTLSASVGDRVIITCQAEENIYNYLAWYQQKPGKAPKLLIYYASTLASGVPSRFSGSGSGAEFTLTISSLQPDDFATYYCQSGYVSKSSTFGQGTKLTVL
notes: also called hu29F1 VL S26E
B5: MYT9488 (antibody, V domains shown)
VH: EVQLVESGGGLVQPGGSLRLSCTASGFSFSSSHWICWVRQAPGKGLEWVGCIYAGSIGSTYYADWAKGRFTISRDTSKNTVYLQMNSLRAEDTAVYYCARAPNDIYNYYFNLWGQGTLVTVSS
VL: EIVMTQSPSTLSASVGDRVIITCQASENIYNYLAWYQQKPGKAPKLLIYYASTLASGVPSRFSGSGSGAEFTLTISSLQPDDFATYYCQSGYVSKSSTFGQGTKLTVL
notes: also called hu29F1 VH S64D
B6: MYT9489 (antibody, V domains shown)
VH: EVQLVESGGGLVQPGGSLRLSCTASGFSFSSSHWICWVRQAPGKGLEWVGCIYAGSIGSTYYASDAKGRFTISRDTSKNTVYLQMNSLRAEDTAVYYCARAPNDIYNYYFNLWGQGTLVTVSS
VL: EIVMTQSPSTLSASVGDRVIITCQASENIYNYLAWYQQKPGKAPKLLIYYASTLASGVPSRFSGSGSGAEFTLTISSLQPDDFATYYCQSGYVSKSSTFGQGTKLTVL
notes: also called hu29F1 VH W65D
B7: MYT9494 (antibody, V domains shown)
VH: EVQLVESGGGLVQPGGSLRLSCTASGFSFSSSHWICWVRQAPGKGLEWVGCIYAGSIGSTYYASWAKGRFTISRDTSKNTVYLQMNSLRAEDTAVYYCADAPNDIYNYYFNLWGQGTLVTVSS
VL: EIVMTQSPSTLSASVGDRVIITCQASENIYNYLAWYQQKPGKAPKLLIYYASTLASGVPSRFSGSGSGAEFTLTISSLQPDDFATYYCQSGYVSKSSTFGQGTKLTVL
notes: also called hu29F1 VH R100D
B8: MYT9493 (antibody, V domains shown)
VH: EVQLVESGGGLVQPGGSLRLSCTASGFSFSSSHWICWVRQAPGKGLEWVGCIYAGSIGSTYYASWAKGRFTISRDTSKNTVYLQMNSLRAEDTAVYYCDRAPNDIYNYYFNLWGQGTLVTVSS
VL: EIVMTQSPSTLSASVGDRVIITCQASENIYNYLAWYQQKPGKAPKLLIYYASTLASGVPSRFSGSGSGAEFTLTISSLQPDDFATYYCQSGYVSKSSTFGQGTKLTVL
notes: Humanized 29F1 VH aspartate variant; also called hu29F1 VH A99D
B9: MYT9491 (antibody, V domains shown)
VH: EVQLVESGGGLVQPGGSLRLSCTASGFSFSSSHWICWVRQAPGKGLEWVGCIYAGSIGSTYYASWADGRFTISRDTSKNTVYLQMNSLRAEDTAVYYCARAPNDIYNYYFNLWGQGTLVTVSS
VL: EIVMTQSPSTLSASVGDRVIITCQASENIYNYLAWYQQKPGKAPKLLIYYASTLASGVPSRFSGSGSGAEFTLTISSLQPDDFATYYCQSGYVSKSSTFGQGTKLTVL
notes: also called hu29F1 VH K67D
B10: MYT9485 (antibody, V domains shown)
VH: EVQLVESGGGLVQPGGSLRLSCTASGFSFSSSHWICWVRQAPGKGLEWVGCIYAGSIGSTDYASWAKGRFTISRDTSKNTVYLQMNSLRAEDTAVYYCARAPNDIYNYYFNLWGQGTLVTVSS
VL: EIVMTQSPSTLSASVGDRVIITCQASENIYNYLAWYQQKPGKAPKLLIYYASTLASGVPSRFSGSGSGAEFTLTISSLQPDDFATYYCQSGYVSKSSTFGQGTKLTVL
notes: also called hu29F1 VH Y61D
B11: MYT9490 (antibody, V domains shown)
VH: EVQLVESGGGLVQPGGSLRLSCTASGFSFSSSHWICWVRQAPGKGLEWVGCIYAGSIGSTYYASWDKGRFTISRDTSKNTVYLQMNSLRAEDTAVYYCARAPNDIYNYYFNLWGQGTLVTVSS
VL: EIVMTQSPSTLSASVGDRVIITCQASENIYNYLAWYQQKPGKAPKLLIYYASTLASGVPSRFSGSGSGAEFTLTISSLQPDDFATYYCQSGYVSKSSTFGQGTKLTVL
notes: also called hu29F1 VH A66D
B12: MYT9481 (antibody, V domains shown)
VH: EVQLVESGGGLVQPGGSLRLSCTASGFSFSSSHWICWVRQAPGKGLEWVGCIYAGSDGSTYYASWAKGRFTISRDTSKNTVYLQMNSLRAEDTAVYYCARAPNDIYNYYFNLWGQGTLVTVSS
VL: EIVMTQSPSTLSASVGDRVIITCQASENIYNYLAWYQQKPGKAPKLLIYYASTLASGVPSRFSGSGSGAEFTLTISSLQPDDFATYYCQSGYVSKSSTFGQGTKLTVL
notes: also called hu29F1 VH I57D
B13: MYT9486 (antibody, V domains shown)
VH: EVQLVESGGGLVQPGGSLRLSCTASGFSFSSSHWICWVRQAPGKGLEWVGCIYAGSIGSTYDASWAKGRFTISRDTSKNTVYLQMNSLRAEDTAVYYCARAPNDIYNYYFNLWGQGTLVTVSS
VL: EIVMTQSPSTLSASVGDRVIITCQASENIYNYLAWYQQKPGKAPKLLIYYASTLASGVPSRFSGSGSGAEFTLTISSLQPDDFATYYCQSGYVSKSSTFGQGTKLTVL
notes: also called hu29F1 VH Y62D
B14: MYT9484 (antibody, V domains shown)
VH: EVQLVESGGGLVQPGGSLRLSCTASGFSFSSSHWICWVRQAPGKGLEWVGCIYAGSIGSDYYASWAKGRFTISRDTSKNTVYLQMNSLRAEDTAVYYCARAPNDIYNYYFNLWGQGTLVTVSS
VL: EIVMTQSPSTLSASVGDRVIITCQASENIYNYLAWYQQKPGKAPKLLIYYASTLASGVPSRFSGSGSGAEFTLTISSLQPDDFATYYCQSGYVSKSSTFGQGTKLTVL
notes: also called hu29F1 VH T60D
B15: MYT9487 (antibody, V domains shown)
VH: EVQLVESGGGLVQPGGSLRLSCTASGFSFSSSHWICWVRQAPGKGLEWVGCIYAGSIGSTYYDSWAKGRFTISRDTSKNTVYLQMNSLRAEDTAVYYCARAPNDIYNYYFNLWGQGTLVTVSS
VL: EIVMTQSPSTLSASVGDRVIITCQASENIYNYLAWYQQKPGKAPKLLIYYASTLASGVPSRFSGSGSGAEFTLTISSLQPDDFATYYCQSGYVSKSSTFGQGTKLTVL
notes: also called hu29F1 VH A63D
B16: MYT9480 (antibody, V domains shown)
VH: EVQLVESGGGLVQPGGSLRLSCTASGFSFSSSHWICWVRQAPGKGLEWVGCIYAGDIGSTYYASWAKGRFTISRDTSKNTVYLQMNSLRAEDTAVYYCARAPNDIYNYYFNLWGQGTLVTVSS
VL: EIVMTQSPSTLSASVGDRVIITCQASENIYNYLAWYQQKPGKAPKLLIYYASTLASGVPSRFSGSGSGAEFTLTISSLQPDDFATYYCQSGYVSKSSTFGQGTKLTVL
notes: Humanized 29F1 VH aspartate variant; also called hu29F1 VH S56D

The binders below were run against T1, Human LRRC15 Protein, His Tag, Acro … (assay: BLI; dissociation pH 7.4 black, pH 5.4 grey [D00028 FIG. 7B]).
B1: binds.
B2: binds.
B3: binds.
B4: binds.

These binders were tested against T2, Human LRRC15 Protein, His Tag (Acro …) (assay: BLI; dissociation pH 7.4 black, pH 5.4 grey [1/2); D00019 FIG. 4B (1/2]).
Procedure: Desirable mutations were transferred to a humanized framework (humanized, MYT 8387-8411). After allowing for four days of protein expression, cell culture supernatants were collected, quantified by SDS-PAGE analysis, and the pH dependence of the variant was evaluated using biolayer interferometry (BLI) on an Octet RED 96e instrument. Briefly, cell culture supernatants were diluted based on qualitative expression level of the variant determined by visual examination of SDS-PAGE gels, 5 μL of cell culture supernatant was diluted into 195 μL of 1×PBST, pH 7.4 for high expressors, 25 μL of cell culture supernatant was diluted into 175 μL of 1×PBST, pH 7.4 for medium expressors and 100 μL of cell culture supernatant was diluted into 100 μL of 1×PBST, pH 7.4 for low expressors for loading onto the sensor tips. The resulting diluted supernatants were then captured on an anti-human Fc sensor (Forte Bio). A baseline was established using 1×PBST (50 mM Potassium Phosphate Buffer+150 mM NaCl+0.05% Tween 20) pH 7.4, and the […] was associated with 50 nM of LRRC15 (Human LRRC15 Protein, His Tag, Acro Biosystems) in 1×PBST pH 7.4 for 120 sec to generate an association curve. In the dissociation phase, the antibody-antigen complex on the sensor was exposed to 1×PBST pH 7.4 or pH 5.4, for 300 sec. Association and dissociation phase curves were examined for the starting ABPC antibody (with no substitutions) and each corresponding antibody variant at pH 5.4 and pH 7.4 to inform on two criteria: a) enhanced dissociation (i.e., higher koff values) at pH 5.4 due to histidine substitution compared to the starting ABPC, (with no substitutions), and b) reduced dissociation at pH 7.4 (i.e., lower koff values) compared to pH 5.4 in the antibody variant itself and with the starting ABPC (with no substitutions).
The methods of Examples 9-10 were applied to RabMAb clone 29F1 (rabbit VH SEQ ID NO: 572 and VL SEQ ID NO: 578; and humanized VH SEQ ID NO: 576 and VL SEQ ID NO: 582).
B5: binds.
B6: binds.
B7: binds.
B8: binds.
B9: binds.
B10: binds.
B11: binds.
B12: binds.
B13: binds.
B14: binds.
B15: binds.
B16: binds.
